In patent publication US11279747 (UNIVERSITAT ZURICH, dated 2022):
Substitutions are numbered along the chain they refer to.

T1: mouse Pirb (mouse, UniProt P97484 25-642, limits assumed)
T1 construct: Bought protein coated on the ELISA plate; also called PirB (murine homologue to LILRB)
T1 sequence (looked up): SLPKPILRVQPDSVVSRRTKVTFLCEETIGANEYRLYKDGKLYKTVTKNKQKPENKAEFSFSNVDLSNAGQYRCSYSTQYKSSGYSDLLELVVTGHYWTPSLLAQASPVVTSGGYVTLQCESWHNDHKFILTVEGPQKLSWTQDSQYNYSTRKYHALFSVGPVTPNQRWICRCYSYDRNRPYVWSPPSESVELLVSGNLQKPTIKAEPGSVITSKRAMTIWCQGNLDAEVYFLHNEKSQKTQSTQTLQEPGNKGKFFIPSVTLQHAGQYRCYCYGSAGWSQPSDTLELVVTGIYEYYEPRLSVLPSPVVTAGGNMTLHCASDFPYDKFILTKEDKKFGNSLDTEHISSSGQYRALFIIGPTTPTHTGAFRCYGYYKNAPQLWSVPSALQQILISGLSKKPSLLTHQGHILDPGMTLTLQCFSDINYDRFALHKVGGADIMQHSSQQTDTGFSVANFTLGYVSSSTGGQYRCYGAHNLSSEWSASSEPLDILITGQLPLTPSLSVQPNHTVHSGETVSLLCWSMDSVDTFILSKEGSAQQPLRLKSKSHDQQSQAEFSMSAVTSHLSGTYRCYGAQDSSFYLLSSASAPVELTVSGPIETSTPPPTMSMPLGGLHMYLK

B1: human KIR3DL2 (receptor, UniProt P43630 22-340, looked up)
chain: LMGGQDKPFLSARPSTVVPRGGHVALQCHYRRGFNNFMLYKEDRSHVPIFHGRIFQESFIMGPVTPAHAGTYRCRGSRPHSLTGWSAPSNPLVIMVTGNHRKPSLLAHPGPLLKSGETVILQCWSDVMFEHFFLHREGISEDPSRLVGQIHDGVSKANFSIGPLMPVLAGTYRCYGSVPHSPYQLSAPSDPLDIVITGLYEKPSLSAQPGPTVQAGENVTLSCSSWSSYDIYHLSREGEAHERRLRAVPKVNRTFQADFPLGPATHGGTYRCFGSFRALPCVWSNSSDPLLVSVTGNPSSSWPSPTEPSSKSGICRHLH
notes: Bought protein coated on the ELISA plate; also called hu KIR3DL2
B2: C082-Fc (Fc fusion)
chain: CSHSMRYFYTAVSRPGRGEPRFIAVGYVDDTQFVQFDSDAASPRGEPRAPWVEQEGPEYWDRETQKYKRQAQTDRVSLRNLRGYYNQSEAGSHTLQRMYGCDLGPDGRLLRGYNQFAYDGKDYIALNEDLRSWTAADTAAQITQRKWEAARTAEQLRAYLEGTCVEWLRRYLENGKKTLQRAEHPKTHVTHHPVSDHEATLRCWALGFYPAEITLTWQRDGEDQTQDTELVETRPAGDGTFQKWAAVVVPSGEEQRYTCHVQHEGLPEPLTLRW
notes: also called HLA2-Fc; HLA-C08 open conformer; not shown: human IgG4 Fc (human IgG4-Fc vector, InvivoGen)
B3: C122-Fc (Fc fusion)
chain: B2 chain with Q35R, T73A, N114D, F116S, T152E, L156W, K177E
notes: also called HLA2-Fc; HLA-C12 open conformer; not shown: human IgG4 Fc (human IgG4-Fc vector, InvivoGen)
B4: B582-Fc (Fc fusion)
chain: GSHSMRYFYTAMSRPGRGEPRFIAVGYVDDTQFVRFDSDAASPRTEPRAPWIEQEGPEYWDGETRNMKASAQTYRENLRIALRYYNQSEAGSHIIQRMYGCDLGPDGRLLRGHDQSAYDGKDYIALNEDLSSWTAADTAAQITQRKWEAARVAEQLRAYLEGLCVEWLRRYLENGKETLQRADPPKTHVTHHPVSDHEATLRCWALGFYPAEITLTWQRDGEDQTQDTELVETRPAGDRTFQKWAAVVVPSGEEQRYTCHVQHEGLPKPLTLRW
notes: also called HLA2-Fc; HLA-B58 open conformer; not shown: human IgG4 Fc (human IgG4-Fc vector, InvivoGen)
B5: B532-Fc (Fc fusion)
chain: B4 chain with G62R, E63N, R65Q, N66I, M67F, A69T, S70N, A71T
notes: also called HLA2-Fc; HLA-B53 open conformer; not shown: human IgG4 Fc (human IgG4-Fc vector, InvivoGen)
B6: B572-Fc (Fc fusion)
chain: B4 chain with T45M, E46A, R97V, L103V, V194I
notes: also called HLA2-Fc; HLA-B57 open conformer; not shown: human IgG4 Fc (human IgG4-Fc vector, InvivoGen)
B7: A302-Fc (Fc fusion)
chain: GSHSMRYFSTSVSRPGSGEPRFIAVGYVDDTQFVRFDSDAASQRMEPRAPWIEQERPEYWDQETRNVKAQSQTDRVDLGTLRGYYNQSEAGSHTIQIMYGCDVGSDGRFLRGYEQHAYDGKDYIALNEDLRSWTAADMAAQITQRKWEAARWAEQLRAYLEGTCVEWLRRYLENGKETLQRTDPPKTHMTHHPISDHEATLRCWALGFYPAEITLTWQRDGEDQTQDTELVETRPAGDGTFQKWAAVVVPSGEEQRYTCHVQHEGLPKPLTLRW
notes: also called HLA2-Fc; HLA-A30 open conformer; not shown: human IgG4 Fc (human IgG4-Fc vector, InvivoGen)
B8: B272-Fc (Fc fusion)
chain: GSHSMRYFHTSVSRPGRGEPRFITVGYVDDTLFVRFDSDAASPREEPRAPWIEQEGPEYWDRETQICKAKAQTDREDLRTLLRYYNQSEAGSHTLQNMYGCDVGPDGRLLRGYHQDAYDGKDYIALNEDLSSWTAADTAAQITQRKWEAARVAEQLRAYLEGECVEWLRRYLENGKETLQRADPPKTHVTHHPISDHEATLRCWALGFYPAEITLTWQRDGEDQTQDTELVETRPAGDRTFQKWAAVVVPSGEEQRYTCHVQHEGLPKPLTLRW
notes: also called B27052-Fc; HLA2-Fc; not shown: human IgG4 Fc (human IgG4-Fc vector, InvivoGen)
B9: A252-Fc (Fc fusion)
chain: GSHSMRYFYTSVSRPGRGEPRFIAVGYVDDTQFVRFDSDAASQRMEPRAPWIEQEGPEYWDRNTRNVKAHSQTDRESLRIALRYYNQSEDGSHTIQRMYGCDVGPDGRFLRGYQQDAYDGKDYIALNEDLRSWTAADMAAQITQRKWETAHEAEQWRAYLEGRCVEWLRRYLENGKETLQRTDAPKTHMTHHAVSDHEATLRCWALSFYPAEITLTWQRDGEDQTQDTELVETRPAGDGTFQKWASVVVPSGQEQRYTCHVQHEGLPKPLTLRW
notes: also called HLA2-Fc; HLA-A25 open conformer; not shown: human IgG4 Fc (human IgG4-Fc vector, InvivoGen)

Key:
[1] = biological target: T2, B57-β2m-Fc (human, UniProt P61769 21-119, limits assumed); test: ELISA, receptor coated at 10 µg/mL, anti-human Fc-HRP
T2 construct: HLA-Fc heavy chain with beta2m, made in CHO cells; also called HLA-β2m-Fc; control MHC-Ia heterotrimer; not shown: human IgG4 Fc (human IgG4-Fc vector, InvivoGen)
Experimental: (§1) Competition ELISA assays were performed using Maxisorp (Nunc, Switzerland) 96 well plates coated with 10 μg/mL of selected leukocyte receptors (human KIR3DL1, human KIR3DL2, human KIR3DL3, human LILRB1, human LILRB2, human PTPRJ and mouse Pirb) purchased from Creative Biomart. Receptors were incubated for ON 4° C., blocked with 5% milk powder-TBS 2 hrs. HLA_2-Fc selected constructs (A25_2-Fc, A30_2-Fc, B2705_2-Fc, B53_2-Fc, B57_2-Fc, B58_2-Fc, C08_2-F, and C12_2-Fc) and their controls (A25-β2m-Fc, A30-β2m-Fc, B2705-β2m-Fc, B53-β2m-Fc, B57-β2m-Fc, B58-β2m-Fc, C08-β2m-Fc and C12-β2m-Fc) and isotype IgG4 were added at 10 μg/mL for 2 hrs RT. HRP-conjugated antibodies against human Fc were used as detectors.

[2] = biological target: T3, B27-β2m-Fc (human, UniProt P61769 21-119); test: as above
T3 construct: HLA-Fc heavy chain with beta2m, made in CHO cells; also called B2705-β2m-Fc; HLA-β2m-Fc; not shown: human IgG4 Fc (human IgG4-Fc vector, InvivoGen)
Experimental: as §1

[3] = biological target: T4, B58-β2m-Fc (human, UniProt P61769 21-119, limits assumed); test: as above
T4 construct: HLA-Fc heavy chain with beta2m, made in CHO cells; also called HLA-β2m-Fc; control MHC-Ia heterotrimer; not shown: human IgG4 Fc (human IgG4-Fc vector, InvivoGen)
Experimental: as §1

[4] = biological target: T5, A25-β2m-Fc (human, UniProt P61769 21-119, limits assumed); test: as above
T5 construct: HLA-Fc heavy chain with beta2m, made in CHO cells; also called HLA-β2m-Fc; control MHC-Ia heterotrimer; not shown: human IgG4 Fc (human IgG4-Fc vector, InvivoGen)
Experimental: as §1

[5] = biological target: T6, B53-β2m-Fc (human, UniProt P61769 21-119, limits assumed); test: as above
T6 construct: HLA-Fc heavy chain with beta2m, made in CHO cells; also called HLA-β2m-Fc; control MHC-Ia heterotrimer; not shown: human IgG4 Fc (human IgG4-Fc vector, InvivoGen)
Experimental: as §1

[6] = biological target: T7, A30-β2m-Fc (human, UniProt P61769 21-119); test: as above
T7 construct: HLA-Fc heavy chain with beta2m, made in CHO cells; also called HLA-β2m-Fc; control MHC-Ia heterotrimer; not shown: human IgG4 Fc (human IgG4-Fc vector, InvivoGen)
Experimental: as §1

[7] = biological target: T1, mouse Pirb; test: ELISA (FIG. 5F)
Experimental: (§2) A) hu KIR3DL1, B) hu KIR3DL2, and C) hu KIR3DL3 are expressed in NK cells and subpopulations of T cells. D) LILRB1, and E) LILRB2 expressed mostly in myeloid cells, F) PirB (murine homologue to LILRB) and G) PTPRJ (on leukocytes is preferentially expressed in MDSCs cells and activated T cells) Figure 5:
as §1

[8] = biological target: T8, human LILRB1 (human, UniProt Q8NHL6 24-458, limits assumed); test: ELISA (FIG. 5D)
T8 construct: Bought protein coated on the ELISA plate
T8 sequence (Q8NHL6 24-458 limits assumed): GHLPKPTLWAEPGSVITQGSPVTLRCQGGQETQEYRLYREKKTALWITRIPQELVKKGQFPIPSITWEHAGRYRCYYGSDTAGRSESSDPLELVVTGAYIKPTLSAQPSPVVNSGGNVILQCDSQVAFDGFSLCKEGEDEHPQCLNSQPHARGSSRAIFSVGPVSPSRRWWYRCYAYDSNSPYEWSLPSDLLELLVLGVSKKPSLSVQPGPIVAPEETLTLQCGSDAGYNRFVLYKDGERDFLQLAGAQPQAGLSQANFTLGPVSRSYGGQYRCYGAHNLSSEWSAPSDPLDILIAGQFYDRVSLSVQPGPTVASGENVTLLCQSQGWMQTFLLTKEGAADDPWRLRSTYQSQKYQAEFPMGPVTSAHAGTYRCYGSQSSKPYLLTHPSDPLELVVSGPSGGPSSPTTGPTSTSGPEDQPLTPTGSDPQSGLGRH
Experimental: as §2, §1

[9] = biological target: B1; test: ELISA (FIG. 5B)
Experimental: as §2, §1

[10] = biological target: T9, human KIR3DL3 (human, UniProt Q8N743 26-322, limits assumed); test: ELISA (FIG. 5C)
T9 construct: Bought protein coated on the ELISA plate; also called hu KIR3DL3
T9 sequence (Q8N743 26-322 limits assumed): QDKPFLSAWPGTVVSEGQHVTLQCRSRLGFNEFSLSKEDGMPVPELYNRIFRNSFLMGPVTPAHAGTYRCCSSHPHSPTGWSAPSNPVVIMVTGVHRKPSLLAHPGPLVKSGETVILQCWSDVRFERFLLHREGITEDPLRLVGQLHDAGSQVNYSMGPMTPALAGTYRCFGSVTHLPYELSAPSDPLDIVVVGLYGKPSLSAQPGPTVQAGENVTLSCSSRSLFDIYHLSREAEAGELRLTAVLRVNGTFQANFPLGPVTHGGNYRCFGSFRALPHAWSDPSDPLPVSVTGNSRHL
Experimental: as §2, §1

[11] = biological target: T10, human LILRB2 (human, UniProt Q8N423 22-458, limits assumed); test: ELISA (FIG. 5E)
T10 construct: Bought protein coated on the ELISA plate
T10 sequence (Q8N423 22-458 limits assumed): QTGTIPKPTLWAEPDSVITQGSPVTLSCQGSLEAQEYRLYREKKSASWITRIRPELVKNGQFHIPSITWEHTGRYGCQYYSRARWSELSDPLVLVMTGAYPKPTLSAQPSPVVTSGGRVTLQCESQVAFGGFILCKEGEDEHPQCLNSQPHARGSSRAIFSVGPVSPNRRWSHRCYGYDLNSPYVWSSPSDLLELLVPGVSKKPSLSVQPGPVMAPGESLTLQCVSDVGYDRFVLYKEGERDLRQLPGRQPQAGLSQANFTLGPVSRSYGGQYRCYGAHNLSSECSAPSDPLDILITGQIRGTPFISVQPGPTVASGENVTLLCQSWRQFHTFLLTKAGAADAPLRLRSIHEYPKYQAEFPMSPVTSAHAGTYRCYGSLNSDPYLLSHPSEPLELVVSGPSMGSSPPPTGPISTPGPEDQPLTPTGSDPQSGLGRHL
Experimental: as §2, §1

[12] = biological target: T11, human KIR3DL1 (human, UniProt P43629 22-340, limits assumed); test: ELISA (FIG. 5A)
T11 construct: Bought protein coated on the ELISA plate; also called hu KIR3DL1
T11 sequence (P43629 22-340 limits assumed): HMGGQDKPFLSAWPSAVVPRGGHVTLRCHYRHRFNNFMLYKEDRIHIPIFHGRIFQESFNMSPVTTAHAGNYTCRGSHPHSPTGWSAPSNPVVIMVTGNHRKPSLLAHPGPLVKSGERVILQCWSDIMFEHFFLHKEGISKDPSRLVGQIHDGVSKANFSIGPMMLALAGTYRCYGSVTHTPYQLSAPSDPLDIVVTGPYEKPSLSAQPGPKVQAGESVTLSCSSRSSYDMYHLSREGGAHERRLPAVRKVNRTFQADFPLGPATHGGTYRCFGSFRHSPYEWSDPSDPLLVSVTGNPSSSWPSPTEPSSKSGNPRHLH
Experimental: as §2, §1

[13] = biological target: B1; test: ELISA, receptor coated at 10 µg/mL, HLA2-Fc at 10 µg/mL, anti-human Fc-HRP
Experimental: as §1

[14] = biological target: T9, human KIR3DL3; test: as above
Experimental: as §1

[15] = biological target: T8, human LILRB1; test: as above
Experimental: as §1

[16] = biological target: T1, mouse Pirb; test: as above
Experimental: as §1

[17] = biological target: T10, human LILRB2; test: as above
Experimental: as §1

[18] = biological target: T11, human KIR3DL1; test: as above
Experimental: as §1

| binding result [9] | binding result [12] | binding result [13] | binding result [14] | binding result [15] | binding result [16] | binding result [17] | binding result [18] | Binder | further results |
| --- | --- | --- | --- | --- | --- | --- | --- | --- | --- |
|  |  |  |  |  |  |  |  | B1 | binding result [1]: no binding (tested: 10 µg/mL); binding result [2]: no binding (tested: 10 µg/mL); binding result [3]: no binding (tested: 10 µg/mL); binding result [4]: no binding (tested: 10 µg/mL); binding result [5]: no binding (tested: 10 µg/mL); binding result [6]: no binding (tested: 10 µg/mL) |
| binds | binds |  |  |  |  |  |  | B2 | binding result [7]: binds; binding result [8]: binds; binding result [10]: binds; binding result [11]: binds |
| binds | binds |  |  |  |  |  |  | B3 | binding result [7]: binds; binding result [8]: binds; binding result [10]: binds; binding result [11]: binds |
|  |  | binds | binds | binds | binds | binds | binds | B4 |  |
|  |  | binds | binds | binds | binds | binds | binds | B5 |  |
|  |  | binds | binds | binds | binds | binds | binds | B6 |  |
|  |  | binds | binds | binds | binds | binds | binds | B8 |  |

| Binder | binding result [9] | binding result [12] | binding result [13] | binding result [14] | binding result [15] | binding result [16] | binding result [17] | binding result [18] | further results |
| --- | --- | --- | --- | --- | --- | --- | --- | --- | --- |
| B7 | binds | binds |  | binds | binds | binds | binds |  |  |
| B9 |  |  | binds | binds | binds | binds | binds | binds |  |
